Test results: the supplement of paper PMC9170038

system: MS2 coat protein; experiment: apparent KD of MS2 coat protein; higher = weaker reporter binding; conditions: Eterna round: R107; input ligand: theophylline 20 uM
Description: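 RNA-MaP round R107: designed RNA switches with theophylline, tryptophan, arginine or FMN aptamers are transcribed on-chip within common flanks. They are titrated with SNAP-549-labelled MS2 coat protein in RNA-MaP buffer (100 mM Tris pH 7.5, 80 mM KCl, 4 mM MgCl2), without ligand or with the indicated ligand. Median apparent KD per design.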

Sequence	apparent KD of MS2 coat protein [nM]
GGUCUCUGGAGCGAUACCAGCUUAAUUGUACUGGCCAGGUACAUGAGGAUCACCCAUGUAAGCCCUUGGCAGCGCUCCAGAGACC [#1 Exclusion - Theophylline B Attempt #12 (HarryS)]	13.6
CUACAUUUGUAGAAACCGGUCACCAUUAUUCGAGGACCGGUACGGCCGCCACUCGUAUCAUGUGAUACAUGAGGAUCACCCAUGU [Tryptophan A 9]	33.7
AUAAGUGUAAGAUACCGCACGCUGGAGGAAGGAGCGCGGAUUAACGCAGGUAGGUCGCCUCGUACAUGAGGAUCACCCAUGUGGC [#14 Same State - Arginine A]	41.5
AUGCCUAGUGGAAGGAGCGAGGGUCUUCCCAACAUGAGGAUCACCCAUGUUCUUUUACACCCUCAGGUAGGUCGCCAUUGGGACA [Tilexete]	107
AGAGUCAGACAAAAGUCUGGCUCAACCGAAGGAGCGUCCGAAAGGACAGGUAGGUCGCGGUUACCUGAGGAUCACCCGGGUUCCU [ArgAS 9 #OpenEnded #AlternativeMS2]	110
GAUAGAACAAAAGUUUUAUCAGUGGGUGAACGAGGACCGGUACGGCCGCCACUCGGACAUGAGGAUCACCCAUGUCCAUGUGAAA [AstrosExyTryA#17]	17.1
AAUGAGUGGUGGUCAAGUGAUCCUCAUGAACGAGGACCGGUACGGCCGCCACUCGAUAACAUGAGGAUCACCCAUGUAAUAAUAA [|T'-M'-Trp-Ms2|_Design8]	18.9
GGUGAUCCGUGCUGCCGGAUCAUCGGUGAUACCAGCAUCGAAAGAUGCCCUUGGCAGCACCAACAUGAGGAUCACCCAUGUAAUA [(M)'-(T)'-(M)''-(T1)-(T2)-(M1)-(M2)_Design5]	231
GAUAUGGAAACAUGUCAGAUCCUUACCGGUCGAGGACCGGUACGGCCGCCACUCGAAAAUAAUAAACAUGAGGAUCACCCAUGUA [Ex Tryptophan A 16]	18.8
CAUGAGAGAUUGUUUUGUGACUCUAACGAUACCAGAGUAGGACUUCUCCCUUGGCAGCGUGUGACAUGAGGAUCACCCAUGUCCA [theeternabot_exclusion_MS2_Theo_A_5]	12.9
AGCCCUGUACUAGAUACCAGCUACAUGAGGAUCACCCAUGUGCGUCAAGACUGACUGUGUAGCCCUUGGCAGCUGCUCGCAUGUA [Exclusion - Theophylline B (Freestyle 2)]	29.9
UUAGAUAUGACGGAUACCAGCGUGUUGUAGAACAUGAGGAUCACCCAUGUAGUGAUCGAGCGCCCUUGGCAGCUGGUAUGUUUGG [7.T]	203
ACAUGAGGAUCACCCAUGUUGCUGACAGAAGGAGCGUGAUUAAGCACAGGUAGGUCGCUGUUGGUAUCGAGCGUUAGCUCGAUAC [SSArg A #8]	41.7
GGAUAGGACAGAAGGAGCGACAUGGCGACGAAAGUCGGACCUUCACAUGAGGAUCACCCAUGUCAGGUAGGUCGCUGUCCUAUCG [ArgXB 6 #MS2Gate #StaticStem]	55.2
CUGACAUGAGGAUCACCCAUGUACACUGAAGGAGCGUCGAGAAUGACAGGUAGGUCGCAGAAUAAUAAUGGUGAUGUUUAGGUAA [Exclusion Arginine A GF 2]	34.1
UGUAUGGACUGAAGGAGCGGAAGAUAACCUGAGGAUCACCCGGGUAAUAAGGCGAAAGCCUUCCAGGUAGGUCGCAGUCCAUACU	334
CCGUCCCUCGGAAGGAGCGGCGCAAUGUAAGGGACCUUUUAUACAUGAGGAUCACCCAUGUGCCAGGUAGGUCGCCGAGAGCGUG [Erxeatge]	74
UAAUGCAUGACGGCCGCCACUAGAACAUGAGGAUCACCCAUGUACGGCGGCCGUCAUGGGUGGACUAGGACCGGGUCAUGCAUAU [(Trp1)-(Ms2)-(T)'-(M)'-(Trp2)_Design5]	11.6
AAUAACAUGAGGAUCACCCAUGUAAAAGAUACCAGGGUGAUGAUCCUCCCUUGGCAGCUUACAGCUGAUCAAUAAGAUCGGCUGA [TheoAS #Tail #MS2BeforeAptamer #BothOrNeither]	256

same assay, conditions: Eterna round: R107; input ligand: theophylline 2 mM

Sequence	apparent KD of MS2 coat protein [nM]
UAAACUACACAUGAGGAUCACCCAUGUGGCCGAGGACCGGUACGGCCGCCACUCGUGUGUUAAUAAAAGAACCGCAAAGUUCUUU [Raesonisso]	678
GCAUCCUAGUCGGCCGCCACUGGUAUCAACACCUUCACCCGUGUGCACAUGAGGAUCACCCAUGUUAGGACCGGGACUAGGAUGC [SSTryp B #19]	9.55
ACGAUAGGACCUGAGGAACACCCAGGUGAUACCAGCCUGGAAACAGGCCCUUGGCAGCACCAAUACUCCAAUAACCUAUCGAAUA [TheoAX 12 #MicroSwitchBubble #AlternativeMS2]	366
AAGACAUGAGGAUCACCCAUGUGUCAUGAAGGAGCGUCGGAAAUGACAGGUAGGUCGCAUGACCGUUGGCGCCGGAAACGGCGCA [SSAA #15]	33.3
CGGCCCUCACGUGAGGAUCACCCACGUGAUACCAGCCUGGAAACAGGCCCUUGGCAGCACUAGGUCAUCAAAGAUGACCAAGCCG [TheoAX 27 #OpenEnded #AlternativeMS2]	18.9
ACGAUAGCACAAGAGGAUCACCCUUGUGAUACCAGCCUGGAAACAGGCCCUUGGCAGCACACAAAUAAAUUGUAACUAUCGAAUA [TheoAX5 #MicroSwitchBubble #AlternativeMS2]	112
UAUAUAUAUCACUAACUGUUGUGGACGUCUCGAGGACCGGUACGGCCGCCACUCGGGCGGCCUCACAUGAGGAUCACCCAUGUCC [XTryp A #4]	149
GGCCCUGCGGGCGCCCGCAGGGCCGCGGAUACCAGCGAGGUCCAUCGCCCUUGGCAGCCGAACAUGAGGAUCACCCAUGUCGGUG [Same State - Theophylline A Attempt #8 (HarryS)]	89.6
UGUCGGCGUAAGUUGGCAUGUCUUGCUGGUCGAGGACCGGUACGGCCGCCACUCGAUCCUUCGCACAUGAGGAUCACCCAUGUUG [SS Tryp A #25]	20.4
GGAUGAAACUGAAGGAGCGAGAACACAAGAAUGGGUCAAACAUGAGGAUCACCCAUGUAAUCUCAGGUAGGUCGCAGUAUCCCUU [Exclusion Arginine B GF 10]	53.3
AUUAAUAAUAUGUAGACGGCGGAGACGAGACGAGGACCGGUACGGCCGCCACUCGUGUUAGUUAACAUGAGGAUCACCCAUGUUA [#10 Tryptophan A Same State]	13.9
AAGGAAAAGGCGGCCGCCACUGGAAAGGCGAAAGCCAAGAAAACAUGAGGAUCACCCAUGUCAUGUAGGACCGGGCCAAAAGGAA	14.7
CCUCAAUAGACGGCCGCCACUGAAUCAUGCGGAUACAUGAGGAUCACCCAUGUGGGUGUGGUACGCAGGACCGGGUCAAGACCCG [#13 Same State - Tryptophan B]	1860
UGAUGGUACGGAAGGAGCGUGUAAGAACAAGAACAUGAGGAUCACCCAUGUAUUAAUUUAACACAGGUAGGUCGCCGUGUUAUUG [11.H]	54.7
AGGACGGUCGGAAGGAGCGGUACAUGAGGAUCACCCAUGUACUUCUGGGCAUCCGUAGAGUGCCAGGUAGGUCGCCGAUUGCGGG [XArg-B10]	10.6
UGUAUGUGAUCUGAUACCAGCUAAUAAGCUUGAGGAUCACCCAAGUGGAGCGGAAACGCAAGCCCUUGGCAGCAGAUCGCAUACU [Denovo 4 #StaticStem #AlternativeMS2]	12.7
GGACCAUGGAGCGAUACCAGCUUGAGUGUGCUGGCCAGGCACAUGAGGAUCACCCAUGUAAGCCCUUGGCAGCGCUCCAUGGUCC [#1 Exclusion - Theophylline B Attempt #26 (HarryS)]	13.5
CAAUCAAUCAAUCAAUCAAUCAACCAUGAAGGAGCGUGGGAAACCACAGGUAGGUCGCAUGGAAAACAUGAGGAUCACCCAUGUA [Casablanca]	36.4
GGUCUCUGGAGCGAUACCAGCUUAAUUGUACUGGCCAGGUACAUGAGGAUCACCCAUGUAAGCCCUUGGCAGCGCUCCAGAGACC [#1 Exclusion - Theophylline B Attempt #12 (HarryS)]	24
CUACAUUUGUAGAAACCGGUCACCAUUAUUCGAGGACCGGUACGGCCGCCACUCGUAUCAUGUGAUACAUGAGGAUCACCCAUGU [Tryptophan A 9]	45.5
AUAAGUGUAAGAUACCGCACGCUGGAGGAAGGAGCGCGGAUUAACGCAGGUAGGUCGCCUCGUACAUGAGGAUCACCCAUGUGGC [#14 Same State - Arginine A]	38.7
